Laboratory results reported in publication PMC4896748, “Ensemble cryo-EM uncovers inchworm-like translocation of a viral IRES through the ribosome” (eLife, 2016).

Molecular target: T1, S. cerevisiae elongation factor eEF2 (C-terminally His6-tagged), bound with GDP and sordarin (S. cerevisiae, UniProt P32324 1-842, diphthamide at 699)
T1 construct: elongation factor 2 (eEF2), S. cerevisiae; residue numbers as in S. cerevisiae eEF2 (H108, H583, H694, Diph699); Complex assembled with eEF2•GTP and sordarin; also called eukaryotic elongation factor 2; translocase; source: yeast TKY675 cells, purified (Ni-NTA, SP Sepharose cation exchange, Superdex 200)
Assay: cryo-EM structure; 80S•TSV IRES•eEF2•GDP•sordarin complex, five structures (I-V) from one specimen; assembled from 40S (0.8 uM), 60S (0.8 uM), TSV IRES RNA (8 uM), eEF2 (5 uM), sordarin (800 uM), GTP (1 mM); 30°C; 45 mM HEPES·KOH pH 7.5, 10 mM MgCl2, 100 mM KCl, 2.5 mM spermine, 2 mM β-mercaptoethanol
Details: both partners purified

T1 sequence (P32324 whole entry): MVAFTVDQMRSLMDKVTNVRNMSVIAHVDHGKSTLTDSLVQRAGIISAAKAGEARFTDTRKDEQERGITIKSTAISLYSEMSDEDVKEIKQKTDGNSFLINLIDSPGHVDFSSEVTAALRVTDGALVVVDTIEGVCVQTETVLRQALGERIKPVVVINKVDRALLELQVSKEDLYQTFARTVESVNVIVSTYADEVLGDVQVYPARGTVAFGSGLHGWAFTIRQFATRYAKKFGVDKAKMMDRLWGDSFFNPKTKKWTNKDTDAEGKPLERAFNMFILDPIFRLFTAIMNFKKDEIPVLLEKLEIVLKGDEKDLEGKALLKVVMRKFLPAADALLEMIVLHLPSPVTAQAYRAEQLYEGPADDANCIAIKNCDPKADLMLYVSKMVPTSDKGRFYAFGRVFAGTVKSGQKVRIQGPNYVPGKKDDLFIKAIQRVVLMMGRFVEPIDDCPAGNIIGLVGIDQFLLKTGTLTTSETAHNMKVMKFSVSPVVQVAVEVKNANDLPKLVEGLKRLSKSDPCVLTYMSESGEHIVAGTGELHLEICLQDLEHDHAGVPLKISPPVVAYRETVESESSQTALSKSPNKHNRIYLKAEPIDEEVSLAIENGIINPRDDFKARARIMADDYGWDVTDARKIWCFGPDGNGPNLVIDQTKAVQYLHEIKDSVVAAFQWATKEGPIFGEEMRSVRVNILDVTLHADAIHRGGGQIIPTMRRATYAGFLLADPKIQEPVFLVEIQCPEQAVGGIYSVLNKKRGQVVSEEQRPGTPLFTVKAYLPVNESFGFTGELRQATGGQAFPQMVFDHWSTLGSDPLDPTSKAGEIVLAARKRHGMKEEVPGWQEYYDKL

B1: ribosomal protein P0 of the S. cerevisiae 60S subunit (P stalk) (natural protein, UniProt P05317 1-312, looked up)
chain: MGGIREKKAEYFAKLREYLEEYKSLFVVGVDNVSSQQMHEVRKELRGRAVVLMGKNTMVRRAIRGFLSDLPDFEKLLPFVKGNVGFVFTNEPLTEIKNVIVSNRVAAPARAGAVAPEDIWVRAVNTGMEPGKTSFFQALGVPTKIARGTIEIVSDVKVVDAGNKVGQSEASLLNLLNISPFTFGLTVVQVYDNGQVFPSSILDITDEELVSHFVSAVSTIASISLAIGYPTLPSVGHTLINNYKDLLAVAIAASYHYPEIEDLVDRIENPEKYAAAAPAATSAASGDAAPAEEAAAEEEEESDDDMGFGLFD
notes: 60S acidic ribosomal protein P0 (uL10), S. cerevisiae; part of the P stalk of the 60S subunit; Stood in the assay as a subunit of the 60S ribosomal subunit within the 80S ribosome, not as an isolated protein; also called eukaryote-specific protein P0; source: endogenous, in 60S subunits from 80S ribosomes purified from S. cerevisiae strain W303
binding result: binds
